Assay results reported in patent publication US9284543B2, “Neutral active soluble truncated PH20 polypeptides and uses thereof” (Halozyme, Inc., priority 2008, dated 2016).

Legend:
[1] = tested on: CHO-S cells; experiment: Western blot analysis of PH20 expression in media and cells after transient expression; type: cell-based, Chinese Hamster; conditions: media versus cells
How it was run: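 CHO-S cells were transiently transfected with mutant PH20-HZ24 plasmids using GeneJuice and expressed for 48-72 h at 37 °C, 5% CO2. Media and cells were harvested separately, with PI-PLC treatment used to release GPI-anchored protein. Non-reduced samples were blotted with rabbit anti-PH20 (0.5 μg/mL), and a band near 66 kDa was scored as PH20.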

[2] = tested on: CHO-S cells; experiment: PI-PLC treatment of expressing cells, Western blot of media and cells; type: cell-based, Chinese Hamster; conditions: cells incubated with PI-PLC for 2 hours
How it was run: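 CHO-S cells transiently expressing rHuPH20 or C-terminal truncation mutants were treated with PI-PLC (0.5 units/well, or 3.0 units/dish in serum/detergent-free medium) for 2 h at 37 °C after 48–72 h expression. Untreated and treated media and cell extracts were analysed separately by Western blot for PH20.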

[3] = Triton X-114 partition assay; type: physicochemical; conditions: partition into aqueous phase of Triton X-114 at 37° C.
[4] = Microtiter hyaluronidase activity assay with biotinylated-hyaluronic acid; type: biochemical; conditions: 72 hour post transfection supernatant
[5] = Effect of glycosidase treatment on rHuPH20 hyaluronidase activity; type: biochemical; set-up: unit not given here
Procedure: (§1) In short, a 4×BH 96-well plate was coated with biotinylated-HA (1.1 MDa). The 72 hour post transfection supernatant from cells transfected with human PH20 hyaluronidase carboxy-terminus deletion mutants was diluted in buffer at either pH 7.4 or pH 5.5 and added to individual wells of the plate and allowed to incubate at 37° C. for 90 minutes. The reaction was terminated by addition of 4M guanidine HCl. The wells were washed 4× with Phosphate Buffered Saline with Tween20 (PBST) to remove any digested biotinylated-HA followed by addition of streptavidin-HRP for 1 hour at room temperature. The wells were washed 4× with PBST and the plate was developed with TMB. The plate was read at 450 nm using an ELISA plate reader. Hyaluronidase activity (in Units/mL) was determined by interpolating the measured absorbance at 450 nm with a hyaluronidase reference standard curve. Full length mature human PH20 hyaluronidase and untransfected CHO cells were used as positive and negative controls.
Human PH20 hyaluronidase is glycosylated at six different asparagine residues, including N82, N166, N235, N254, N368, and N393. Five glycosidases were used to generate deglycosylated human PH20 hyaluronidase, including: PNGaseF (New England Biolabs, Cat. No. P0704S, Lot #34), which cleaves all N-glycans; EndoF1, which cleaves high mannose and hybrid type glycans; EndoF2, which cleaves biantennary complex type glycans; EndoF3, which cleaves biantennary and more branched complex glycans; and EndoH (New England Biolabs, Cat. No. P0702S), which cleaves high mannose and hybrid type glycans. Therefore, treatment with PNGaseF results in complete deglycosylation whereas treatment with endoglycosidases results in only partial deglycosylation.
For complete deglycosylation, purified rHuPH20 (0.1 mg/mL final concentration) was incubated with PNGaseF (50,000 units/mL) in 50 mM phosphate buffer pH 7.2 overnight at 37° C. For partial deglycosylation, purified rHuPH20 (0.5 mg/mL final concentration) was incubated with 0.3 units/mL of endoglycosidase (either EndoF1, EndoF2, EndoF3 or EndoH) or a mixture all four endoglycosidases in 50 mM sodium acetate buffer pH 5.0 overnight at 35° C. Deglycosylation of rHuPH20 was analyzed by the shift in the mobility of PH20 by SDS-PAGE. Hyaluronidase enzymatic activity was determined as described in Example 5.

[6] = bHA enzymatic assay of PH20 transiently expressed in lectin resistant CHO mutants; type: biochemical; conditions: pH5.5; for PH20 Activity (1:27): 1:27 dilution; for PH20 Activity (1:81): 1:81 dilution
Procedure: as §1
The resulting cell culture media was analyzed by Western blot analysis and hyaluronidase activity was measured using the biotinylated HA enzymatic assay (as described in Examples 3 and 5 above).

[7] = Hyaluronidase activity of N-glycan site specific deglycosylation mutants (biotinylated-HA assay); type: biochemical; conditions: media of transfected CHO-S cells
Procedure: as §1
PH20sHis (SEQ ID NO:210) was used as a template for mutagenesis of each asparagine residue to alanine using QuikChange® Site-Directed Mutagenesis Kit (Cat No. 200518, Stratagene). […] Six single mutants were generated, one for each of the N-glycosylation sites. Additionally, three double mutants and a triple mutant were generated for asparagines N82, N166 and N254, all of which are occupied by complex type glycans. Finally, a double mutant N368A/N393A was generated, lacking high mannose glycans. The mutants were transfected into CHO—S cells and expression was performed as described in Example 2A. Secretion into the media and hyaluronidase activity were determined as described in Examples 3 and 5, above.

B1: SPAM1-PSTL: C-terminally truncated human PH20, precursor 489 aa (SEQ ID NO:12), mature 454 aa (SEQ ID NO:64) (protein, listed as Homo sapiens)
chain 1: MGVLKFKHIFFRSFVKSSGVSQIVFTFLLIPCCLTLNFRAPPVIPNVPFLWAWNAPSEFCLGKFDEPLDMSLFSFIGSPRINATGQGVTIFYVDRLGYYPYIDSITGVTVNGGIPQKISLQDHLDKAKKDITFYMPVDNLGMAVIDWEEWRPTWARNWKPKDVYKNRSIELVQQQNVQLSLTEATEKAKQEFEKAGKDFLVETIKLGKLLRPNHLWGYYLFPDCYNHHYKKPGYNGSCFNVEIKRNDDLSWLWNESTALYPSIYLNTQQSPVAATLYVRNRVREAIRVSKIPDAKSPLPVFAYTRIVFTDQVLKFLSQDELVYTFGETVALGASGIVIWGTLSIMRSMKSCLLLDNYMETILNPYIINVTLAAKMCSQVLCQEQGVCIRKNWNSSDYLHLNPDNFAIQLEKGGKFTVRGKPTLEDLEQFSEKFYCSCYSTLSCKEKADVKDTDAVDVCIADGVCIDAFLKPPMETEEPQIFYNASPSTL
chain 2: LNFRAPPVIPNVPFLWAWNAPSEFCLGKFDEPLDMSLFSFIGSPRINATGQGVTIFYVDRLGYYPYIDSITGVTVNGGIPQKISLQDHLDKAKKDITFYMPVDNLGMAVIDWEEWRPTWARNWKPKDVYKNRSIELVQQQNVQLSLTEATEKAKQEFEKAGKDFLVETIKLGKLLRPNHLWGYYLFPDCYNHHYKKPGYNGSCFNVEIKRNDDLSWLWNESTALYPSIYLNTQQSPVAATLYVRNRVREAIRVSKIPDAKSPLPVFAYTRIVFTDQVLKFLSQDELVYTFGETVALGASGIVIWGTLSIMRSMKSCLLLDNYMETILNPYIINVTLAAKMCSQVLCQEQGVCIRKNWNSSDYLHLNPDNFAIQLEKGGKFTVRGKPTLEDLEQFSEKFYCSCYSTLSCKEKADVKDTDAVDVCIADGVCIDAFLKPPMETEEPQIFYNASPSTL
modifications: HuPH20 precursor 1-489; mature HuPH20 36-489
Expressed in Media [1]: YES | Expressed in Media Following Addition of PI-PLC [2]: Initially in media | Soluble [3]: YES | pH 5.5 Activity ([4]; Table 6): 1.089 Units/ml | pH 7.4 Activity ([4]; Table 6): 1.557 Units/ml | pH 5.5 Activity ([4]; Table 6A): 3.321 Units/ml | pH 7.4 Activity ([4]; Table 6A): 1.985 Units/ml

B2: PNGaseF: purified rHuPH20 incubated with PNGaseF (complete deglycosylation) (protein, listed as Homo sapiens)
chain: LNFRAPPVIPNVPFLWAWNAPSEFCLGKFDEPLDMSLFSFIGSPRINATGQGVTIFYVDRLGYYPYIDSITGVTVNGGIPQKISLQDHLDKAKKDITFYMPVDNLGMAVIDWEEWRPTWARNWKPKDVYKNRSIELVQQQNVQLSLTEATEKAKQEFEKAGKDFLVETIKLGKLLRPNHLWGYYLFPDCYNHHYKKPGYNGSCFNVEIKRNDDLSWLWNESTALYPSIYLNTQQSPVAATLYVRNRVREAIRVSKIPDAKSPLPVFAYTRIVFTDQVLKFLSQDELVYTFGETVALGASGIVIWGTLSIMRSMKSCLLLDNYMETILNPYIINVTLAAKMCSQVLCQEQGVCIRKNWNSSDYLHLNPDNFAIQLEKGGKFTVRGKPTLEDLEQFSEKFYCSCYSTLSCKEKADVKDTDAVDVCIADGVCIDAFLKPPMETEEPQIFY
modifications: N-glycans removed by PNGaseF; soluble rHuPH20 36-482
rHuPH20 activity after glycosidase treatment (assay readout) ([5]; rHuPH20 0.0080 U/ml): 1.9172 | rHuPH20 activity after glycosidase treatment (assay readout) ([5]; rHuPH20 0.0400 U/ml): 1.9926 | rHuPH20 activity after glycosidase treatment (assay readout) ([5]; rHuPH20 0.2000 U/ml): 1.9173 | rHuPH20 activity after glycosidase treatment (assay readout) ([5]; rHuPH20 1.0000 U/ml): 1.9315

B3: HZ24-mut(B/S): plasmid encoding PH20 truncated at amino acid 482, SEQ ID NO:122 (protein, listed as Homo sapiens)
chain: B2 chain
modifications: soluble rHuPH20 36-482
PH20 Activity (1:27) ([6]; expressed in Pro-5 cells): 0.6615 U/mL | PH20 Activity (1:81) ([6]; expressed in Pro-5 cells): 1.1745 U/mL

B4: HZ24-PH20sHis: his-tagged PH20 (SEQ ID NO:187), human PH20 clone with HexaHis tag after amino acid S490 (protein)
chain: MGVLKFKHIFFRSFVKSSGVSQIVFTFLLIPCCLTLNFRAPPVIPNVPFLWAWNAPSEFCLGKFDEPLDMSLFSFIGSPRINATGQGVTIFYVDRLGYYPYIDSITGVTVNGGIPQKISLQDHLDKAKKDITFYMPVDNLGMAVIDWEEWRPTWARNWKPKDVYKNRSIELVQQQNVQLSLTEATEKAKQEFEKAGKDFLVETIKLGKLLRPNHLWGYYLFPDCYNHHYKKPGYNGSCFNVEIKRNDDLSWLWNESTALYPSIYLNTQQSPVAATLYVRNRVREAIRVSKIPDAKSPLPVFAYTRIVFTDQVLKFLSQDELVYTFGETVALGASGIVIWGTLSIMRSMKSCLLLDNYMETILNPYIINVTLAAKMCSQVLCQEQGVCIRKNWNSSDYLHLNPDNFAIQLEKGGKFTVRGKPTLEDLEQFSEKFYCSCYSTLSCKEKADVKDTDAVDVCIADGVCIDAFLKPPMETEEPQIFYNASPSTLSHHHHHH
modifications: His6 tag; PH20sHis
PH20 Activity (1:27) ([6]; expressed in Lec1 cells): 0.54 U/mL | PH20 Activity (1:81) ([6]; expressed in Lec1 cells): 0.7695 U/mL | PH20 Activity (1:27) ([6]; expressed in Lec2 cells): 0.675 U/mL | PH20 Activity (1:81) ([6]; expressed in Lec2 cells): 1.053 U/mL | PH20 Activity (1:27) ([6]; expressed in Lec8 cells): 0.2565 U/mL | PH20 Activity (1:81) ([6]; expressed in Lec8 cells): 0.567 U/mL | PH20 Activity (1:27) ([6]; expressed in Pro-5 cells): 0.297 U/mL | PH20 Activity (1:81) ([6]; expressed in Pro-5 cells): 0.6075 U/mL | Activity pH 5.5 ([7]; pH 5.5): YES | Activity pH 7.4 ([7]; pH 7.4): YES
